Source: article PMC3653948, “PDZ Domain-Mediated Interactions of G Protein-Coupled Receptors with Postsynaptic Density Protein 95: Quantitative Characterization of Interactions” (PLoS ONE, 2013)
Ends that are not written are not given here.

B1: KIF1Bα C-tail peptide (human), unlabeled (peptide)
peptide: YDDRNLKAGRETTV
notes: N-terminal linker (solubility, concentration determination); YDDR because the C-tail has no Tyr or Trp, by the rule of the methods; source: synthetic peptide (Schafer-N)
B2: 5-HTR2A C-tail peptide (human) (peptide)
peptide: YDDRDGVNEKVSCV
notes: N-terminal linker; YDDR because the C-tail has no Tyr or Trp, by the rule of the methods; 5-hydroxytryptamine receptor 2A, human, 10 C-terminal aa; also called 5-hydroxytryptamine receptor 2A; source: synthetic peptide (Schafer-N)
B3: 5-HTR2C C-tail peptide (human) (peptide)
peptide: YDDRSVVSERISSV
notes: N-terminal linker; YDDR because the C-tail has no Tyr or Trp, by the rule of the methods; 5-hydroxytryptamine receptor 2C, human, 10 C-terminal aa; source: synthetic peptide (Schafer-N)
B4: BAI1 C-tail peptide (human) (peptide)
peptide: YDDRQDIIDLQTEV
notes: N-terminal linker; YDDR because the C-tail has no Tyr or Trp, by the rule of the methods; BAI1 receptor, human, 10 C-terminal aa; also called BAI1 receptor; source: synthetic peptide (Schafer-N)
B5: SSTR1 C-tail peptide (human) (peptide)
peptide: YDDRGTCTSRITTL
notes: N-terminal linker; YDDR because the C-tail has no Tyr or Trp, by the rule of the methods; somatostatin receptor 1, human, 10 C-terminal aa; also called hSSTR1; source: synthetic peptide (Schafer-N)
B6: SSTR1 C-tail peptide (mouse) (peptide)
peptide: YDDRGTCASRISTL
notes: N-terminal linker; YDDR because the C-tail has no Tyr or Trp, by the rule of the methods; somatostatin receptor 1, mouse, 10 C-terminal aa; also called mSSTR1; source: synthetic peptide (Schafer-N)
B7: CRIPT C-tail peptide (human), unlabeled (peptide)
peptide: LDTKNYKQTSV
notes: No YDDR/DDR linker is told for this peptide
B8: β1AR C-tail peptide (human) (peptide)
peptide: YDDRRPGFASESKV
notes: N-terminal linker; YDDR because the C-tail has no Tyr or Trp, by the rule of the methods; β1-adrenergic receptor, human, 10 C-terminal aa; also called β1-adrenergic receptor; source: synthetic peptide (Schafer-N)
B9: SSTR3 C-tail peptide (human) (peptide)
peptide: DDRKSSTMRISYL
notes: N-terminal linker; DDR (Tyr omitted) because the C-tail contains Tyr, by the rule of the methods; somatostatin receptor 3, human, 10 C-terminal aa; source: synthetic peptide (Schafer-N)
B10: GluN2B C-tail peptide (human), unlabeled (peptide)
peptide: YEKLSSIESDV
notes: No YDDR/DDR linker is told for this peptide; also called NR2B
B11: β2AR C-tail peptide (human) (peptide)
peptide: YDDRRNCSTNDSLL
notes: N-terminal linker; YDDR because the C-tail has no Tyr or Trp, by the rule of the methods; β2-adrenergic receptor, human, 10 C-terminal aa; source: synthetic peptide (Schafer-N)
B12: β2-adrenergic receptor (β2AR) C-tail peptide, human (peptide)
chain: RNCSTNDSLL-OH
modifications: not fully specified
B13: metabotropic glutamate receptor mGlu1(a) C-tail peptide, human (peptide)
chain: RDYKQSSSTL-OH
modifications: not fully specified
B14: metabotropic glutamate receptor mGlu7(a) C-tail peptide, human (peptide)
chain: KYVSYNNLVI-OH
modifications: not fully specified

Biological target: T1, PSD-95 PDZ1 (aa 61-151) (UniProt P78352 61-151)
T1 construct: postsynaptic density protein 95 (PSD-95), PDZ1, aa 61-151
Assay: SPR; PDZ domain immobilised by amine coupling (CM5 for PDZ1 and PDZ2, CM4 for PDZ3), peptides injected; Biacore X100, 25.0°C, HBS-EP+ (10 mM HEPES pH 7.4, 150 mM NaCl, 3 mM EDTA, 0.05% Surfactant P-20); 1 mM DTT for peptides with a cysteine; Kd from steady-state responses, 1:1 model with a linear component
Conditions: both partners purified

| Binder | Kd [µM] |
| --- | --- |
| B1 | 2.2 |
| B2 | 630 |
| B3 | 160 |
| B4 | 120 |
| B5 | 84 |
| B6 | 270 |

Biological target: T2, PSD-95 PDZ3 (aa 309-401) (UniProt P78352 309-401)
T2 construct: postsynaptic density protein 95 (PSD-95), PDZ3, aa 309-401
Assay: as above
Conditions: both partners purified

| Binder | Kd [µM] |
| --- | --- |
| B7 | 1.5 |
| B3 | 780 |
| B8 | 400 |
| B4 | 2400 |
| B9 | 240 |

Biological target: T3, PSD-95 PDZ2 (aa 155-249) (UniProt P78352 155-249)
T3 construct: postsynaptic density protein 95 (PSD-95), PDZ2, aa 155-249
Assay: as above
Conditions: both partners purified

| Binder | Kd [µM] |
| --- | --- |
| B10 | 1.4 |
| B1 | 1.1 |
| B2 | 110 |
| B3 | 62 |
| B8 | 180 |
| B11 | 2090 |
| B4 | 74 |
| B5 | 76 |

Biological target: T4, PSD-95 PDZ2 (aa 155–249) (UniProt P78352 155-249)
T4 construct: postsynaptic density protein 95 (PSD-95), PDZ2, aa 155–249; also called isolated PDZ2
Assay: fluorescence polarisation; competition: 25 nM Cy5-labeled probe and a constant concentration of PDZ protein corresponding to the K d of the probe, twofold dilution series of unlabeled peptide (typically 1–512 µM); 10 mM HEPES pH 7.4, 150 mM NaCl, 1% BSA; room temperature; K i calculated from the IC50
Conditions: both partners purified

| Binder | Ki [µM] |
| --- | --- |
| B12 | 720 |
| B13 | > 1000 |
| B14 | > 1000 |

Biological target: PSD-95 PDZ1 (aa 61–151) (UniProt P78352 61-151)
Assay: as above
Conditions: both partners purified

| Binder | Ki [µM] |
| --- | --- |
| B12 | > 1000 |
| B13 | 830 |
| B14 | 610 |

Biological target: T5, PSD-95 PDZ3 (aa 309–401) (UniProt P78352 309-401)
T5 construct: postsynaptic density protein 95 (PSD-95), PDZ3, aa 309–401
Assay: as above
Conditions: both partners purified

| Binder | Ki [µM] |
| --- | --- |
| B12 | > 1000 |
| B13 | > 1000 |
| B14 | > 1000 |

Biological target: T1, PSD-95 PDZ1 (aa 61-151)
Assay: fluorescence polarisation; competition: 25 nM Cy5-labeled probe (Cy5-KIF1Bα for PDZ1, Cy5-GluN2B for PDZ2, Cy5-CRIPT for PDZ3), constant PDZ protein at the probe's Kd, twofold dilution series of unlabeled peptide (typically 1–512 µM); 10 mM HEPES pH 7.4, 150 mM NaCl, 1% BSA, room temperature; Ki calculated from IC50
Conditions: both partners purified

| Binder | Ki [µM] |
| --- | --- |
| B10 | 29 |
| B1 | 7 |

Biological target: T2, PSD-95 PDZ3 (aa 309-401)
Assay: as above
Conditions: both partners purified

| Binder | Ki [µM] |
| --- | --- |
| B7 | 2.9 |
| B10 | > 1000 |
| B1 | 14 |

Biological target: T3, PSD-95 PDZ2 (aa 155-249)
Assay: as above
Conditions: both partners purified

| Binder | Ki [µM] |
| --- | --- |
| B10 | 5.5 |
| B1 | 3.8 |
